From article PMC3649970, “A Unique Spumavirus Gag N-terminal Domain with Functional Properties of Orthoretroviral Matrix and Capsid” (PLoS Pathogens, 2013)

B1: PFV-Gag-NtD (amino terminal domain of Prototypic Foamy Virus Gag, residues 1-179) [Prototypic foamy virus (PFV)] / PFV Env leader peptide residues 1-20 [Prototypic foamy virus (PFV)] (parent)
chain 1: MASGSNVEEYELDVEALVVILRDRNIPRNPLHGEVIGLRLTEGWWGQIERFQMVRLILQDDDNEPLQRPRYEVIQRAVNPHTMFMISGPLAELQLAFQDLDLPEGPLRFGPLANGHYVQGDPYSSSYRPVTMAETAQMTRDELEDVLNTQSEIEIQMINLLELYEVETRALRRQLAERS
chain 2: MAPPMTLQQWIIWKKMNKAH

Variants of: B1
Test: sedimentation velocity analytical ultracentrifugation
Details: with PFV Env leader peptide residues 1-20 [Prototypic foamy virus (PFV)]; 75 µM equimolar mixtures of Gag-NtDs with Env(1-20); read off a plot

Going from chain 1 L17S to chain 1 L21N, the Ka falls from 0.71 10^5 M^-1 to 0.3 10^5 M^-1.

Going from chain 1 L21S to chain 1 N29Q, the Ka rises from 0.29 10^5 M^-1 to 1.4 10^5 M^-1.

First: chain 1 V14S
Second: chain 1 V14S L21S
The Ka of the first is higher: 0.51 10^5 M^-1 for the first, 0.07 10^5 M^-1 for the second.

Going from chain 1 V14S V18S to chain 1 V18S, the Ka rises from 0.18 10^5 M^-1 to 0.6 10^5 M^-1.

With chain 1 V18S L21S the Ka was 0.16 10^5 M^-1.
